Assay results taken from patent US20120322725A1.

How the values were obtained:
Assay in all cases: cell-based or functional assay
GIP receptor = molecular target: T1, GIP receptor (UniProt P48546)
T1 sequence (looked up): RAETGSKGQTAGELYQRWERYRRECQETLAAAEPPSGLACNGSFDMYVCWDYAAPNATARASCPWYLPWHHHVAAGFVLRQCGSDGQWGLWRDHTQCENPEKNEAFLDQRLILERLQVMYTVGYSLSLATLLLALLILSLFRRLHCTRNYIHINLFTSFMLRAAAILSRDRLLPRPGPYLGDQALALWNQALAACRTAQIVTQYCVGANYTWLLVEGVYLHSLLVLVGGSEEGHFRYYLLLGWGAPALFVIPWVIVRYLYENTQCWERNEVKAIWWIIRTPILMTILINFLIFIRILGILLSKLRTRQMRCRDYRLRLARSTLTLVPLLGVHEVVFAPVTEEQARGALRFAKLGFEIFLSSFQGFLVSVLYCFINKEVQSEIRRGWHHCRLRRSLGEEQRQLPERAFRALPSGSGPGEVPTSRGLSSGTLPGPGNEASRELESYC

GLP-1 receptor = GLP-1 receptor (UniProt P43220)
Sequence of GLP-1 receptor (P43220 24-463 limits assumed): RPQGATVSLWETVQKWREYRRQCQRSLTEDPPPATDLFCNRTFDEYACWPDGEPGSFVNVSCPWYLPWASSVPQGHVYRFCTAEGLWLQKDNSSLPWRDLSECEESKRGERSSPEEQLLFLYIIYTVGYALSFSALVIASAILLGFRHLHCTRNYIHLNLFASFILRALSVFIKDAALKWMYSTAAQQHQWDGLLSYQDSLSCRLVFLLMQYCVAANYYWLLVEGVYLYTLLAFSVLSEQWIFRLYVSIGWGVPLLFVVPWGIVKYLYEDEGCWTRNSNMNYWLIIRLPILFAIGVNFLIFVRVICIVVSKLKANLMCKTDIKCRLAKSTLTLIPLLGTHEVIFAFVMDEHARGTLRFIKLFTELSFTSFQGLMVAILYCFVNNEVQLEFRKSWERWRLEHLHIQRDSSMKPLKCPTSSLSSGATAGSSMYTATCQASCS

glucagon receptor = glucagon receptor (UniProt P47871)
Sequence of glucagon receptor (P47871 26-477 limits assumed): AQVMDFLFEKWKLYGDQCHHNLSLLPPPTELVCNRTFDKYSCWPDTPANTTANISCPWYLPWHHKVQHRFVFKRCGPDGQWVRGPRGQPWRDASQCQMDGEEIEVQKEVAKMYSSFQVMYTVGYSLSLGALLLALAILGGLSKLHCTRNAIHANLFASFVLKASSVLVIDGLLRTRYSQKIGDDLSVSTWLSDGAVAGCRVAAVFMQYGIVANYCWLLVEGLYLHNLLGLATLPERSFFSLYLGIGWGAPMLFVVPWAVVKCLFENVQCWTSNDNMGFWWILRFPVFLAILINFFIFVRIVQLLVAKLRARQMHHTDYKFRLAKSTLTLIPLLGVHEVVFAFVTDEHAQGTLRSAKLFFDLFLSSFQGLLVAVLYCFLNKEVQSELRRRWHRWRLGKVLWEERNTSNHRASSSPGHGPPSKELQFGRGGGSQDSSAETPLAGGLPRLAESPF

IC50(nM) (cAMP, inhibit 0.2 mM Glucagon) (glucagon receptor)	Substance	GIP (EC50) (GIP receptor) [nM]	GLP-1 (EC50) (GLP-1 receptor) [nM]	Glucagon IC50 (glucagon receptor) [nM]
	A1, Aib2, E3 GIP(1-40) (peptide)	3.89		
	HAibEGT-PLA6, (E16K20) G(1-29) (peptide)		3.6	12
	HAibEGT-PLA6, (E16K20), C24 G(1-29)/A1, Aib2, E3, K40 GIP(1-40)	1.58	11.7	
	HAibEGT-PLA6, (E16K20), C24, cex, K40(rErEC16) G(1-40)/A1, Aib2, E3, K40 GIP(1-40)	0.379	0.363	
	HAibEGT-PLA6, (E16K20), cex, K40(rErEC16) G(1-40) (peptide)		0.76	150
	HAibEGT-PLA6, K10(rErEC16), (E16K20) G(1-29) (peptide)		0.19	14.3
	HAibEGT-PLA6, K10(rErEC16), (E16K20), C24 G(1-29)/A1, Aib2, E3, K40 GIP(1-40)	0.347	0.813	
	PLA6, (E16K20), C24 G(6-29)/A1, Aib2, E3, K40 GIP(1-40)	1.29	367	40.1
14800	[d-Cys5(20kDaPEG), E9]Glucagon(aa5-29)-NH2 (peptide)			
